Earlier results on one substance are cited in article PMC12336664.

For this data set, the target named is FXa (Homo sapiens) (UniProt P00742).
Sequence of UniProt P00742 (P00742 41-179, chain 1 of 2): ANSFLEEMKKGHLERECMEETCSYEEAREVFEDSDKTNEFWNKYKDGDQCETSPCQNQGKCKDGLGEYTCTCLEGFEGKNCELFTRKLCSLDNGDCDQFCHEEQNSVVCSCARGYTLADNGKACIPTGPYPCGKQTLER
Sequence of UniProt P00742 (P00742 235-488, chain 2 of 2): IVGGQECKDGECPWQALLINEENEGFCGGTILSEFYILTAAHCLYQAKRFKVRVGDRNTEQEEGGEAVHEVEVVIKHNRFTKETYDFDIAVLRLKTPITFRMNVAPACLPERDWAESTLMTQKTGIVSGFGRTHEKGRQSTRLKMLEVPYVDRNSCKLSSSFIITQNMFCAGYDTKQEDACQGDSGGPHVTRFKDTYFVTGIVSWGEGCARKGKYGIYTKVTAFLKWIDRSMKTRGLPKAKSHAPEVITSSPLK

One may read the Kd as the constant that tells how readily two partners part at equilibrium. In the case of TFPIα (from UniProt P10646), the dissociation constant (Kd) is 0.02 nM.
